{"source": "the nanobody polyreactivity screen of Harvey et al. (2022)", "test": "yeast display, Sf9 membrane polyspecificity reagent, FACS + sequencing; frameworks hold sequencing errors", "summary_of_the_method": "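Using colony PCR, genes from sorted yeast display clones were amplified, then sequenced on MiSeq at 2 × 250 and filtered by CDR length. The clones had been stained with 10% biotinylated, detergent-solubilized Sf9 membrane reagent for 1 hour at 4 °C and sorted by FACS into low and high (top ~1%) gates on anti-HA and streptavidin fluorescence. Polyreactivity labels come from the gate of origin.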", "data": [{"sequence": "QVQLVESGGGLVQAGGSLRLSCAASGSIFVGYAMGWYRQAPGKERELVAAISSNGGSTYYADSVKGRFTISRDNAKNTVYLQMNSLKPEDTAVYYCAKDYTYSFGRSLDYWGQGTQVTVSS", "values": [{"measurement": "polyreactivity (PSR sort gate)", "value": "low polyreactivity"}]}, {"sequence": "QVQLVESGGGLVQAGGSLRLSCAASGSIFVGYAMGWYRQAPGKERELVAAITGSGTRTYYADSVKGRFTISRDNAKNTVFLQMNSLKPEDTAVYYCAAPLSYKNVKYDYWGQGTQVTVSS", "values": [{"measurement": "polyreactivity (PSR sort gate)", "value": "low polyreactivity"}]}, {"sequence": "QVQLVESGGGLVQAGGSLRLSCAASGSIFVGYAMGWYRQAPGKERELVAAITKRGGSTSYADSVKGRFTISRDNAKNTVYLQMNSLKPEDTAVYYCAKLYYRHLYEYDYWGQGTQVTVSS", "values": [{"measurement": "polyreactivity (PSR sort gate)", "value": "high polyreactivity"}]}, {"sequence": "QVQLVESGGGLVQAGGSLRLSCAASGSIFVGYAMGWYRQAPGKERELVASITTPGGSTHYADSVKGRFTISRDNAKNTVYLQMNSLKPEDTAVYYCAADSLSNGVLQYLPGYDYWGQGTQVTVSS", "values": [{"measurement": "polyreactivity (PSR sort gate)", "value": "low polyreactivity"}]}, {"sequence": "QVQLVESGGGLVQAGGSLRLSCAASGSIFVGYDMGWYRQAPGKERDLVASINGGDSTNYADSVKGRFTISRDNAKYTVYLQMNSLKPEDTAVYYCAKDVTYTDEYDYWGQGTQVTVSS", "values": [{"measurement": "polyreactivity (PSR sort gate)", "value": "low polyreactivity"}]}, {"sequence": "QVQLVESGGGLVQAGGSLRLSCAASGSIFVGYGALGWYRQAHGKERELVAAITSGTSTYYADSVKGRFTISRDNAKNTVYLQINSLKPEDTAVYYCAARGFLKYVTEFDYWGQGTQVTVSS", "values": [{"measurement": "polyreactivity (PSR sort gate)", "value": "low polyreactivity"}]}, {"sequence": "QVQLVESGGGLVQAGGSLRLSCAASGSIFVGYVMGWYRQAPGKERELVAAISRSGGRTYYADSVKGRFTISRDNAKNTVYLQMNSLKPEDTAVYYCAADSYTQPYGSLPHKQRYEYWGQGTQVTVSS", "values": [{"measurement": "polyreactivity (PSR sort gate)", "value": "low polyreactivity"}]}, {"sequence": "QVQLVESGGGLVQAGGSLRLSCAASGSIFVHNAMGWSRQAPGKERELVAAITRGGSTYYADSVKGRFTISRDNAKNTVYLQMNSLKPEDTAVYYCAALAAWRWDLYDYWGQGTQVTVSS", "values": [{"measurement": "polyreactivity (PSR sort gate)", "value": "low polyreactivity"}]}, {"sequence": "QVQLVESGGGLVQAGGSLRLSCAASGSIFVLYAMGWYRQAPGKERELVAAISWRGGGTYYADSVKGRFTISRDNAKNTVYLLMNSLKPEDTAVYYCAAEYRLDAILYTYEFDYWGQGTQVTVSS", "values": [{"measurement": "polyreactivity (PSR sort gate)", "value": "high polyreactivity"}]}, {"sequence": "QVQLVESGGGLVQAGGSLRLSCAASGSIFVNKGMGWYRQAPGKERELVAAIRLSTGSTYYADSVKGRFTISRDNAKNTVYLKINSLKREDTAVDDCATRYYIWGNWGQGTQVTGSS", "values": [{"measurement": "polyreactivity (PSR sort gate)", "value": "high polyreactivity"}]}, {"sequence": "QVQLVESGGGLVQAGGSLRLSCAASGSIFVNNAMGWYRQAPGKERELVAAISSRGGSTYYADSVKGRFTISRDNAKNTVYLQMNSLKPEDTAVYYCAAEYDGPYYSFYPEQRYYWGQGTLVTVSS", "values": [{"measurement": "polyreactivity (PSR sort gate)", "value": "low polyreactivity"}]}, {"sequence": "QVQLVESGGGLVQAGGSLRLSCAASGSIFVNNAMGWYRQAPGKERELVAAISSRGGSTYYADSVKGRFTISRDNAKNTVYLQMYSLKPEDTAVYYCAAEYDGPYYSFYPEQRYYWGQGTQVTVSS", "values": [{"measurement": "polyreactivity (PSR sort gate)", "value": "low polyreactivity"}]}, {"sequence": "QVQLVESGGGLVQAGGSLRLSCAASGSIFVNNAMGWYRQAPGKERELVAAISSRSSRTFYADSVKGRFTISRDNAKNTVYLQMNSLKPEDTAVYYCAVKKRAPDGDYWGQGTQVTVSS", "values": [{"measurement": "polyreactivity (PSR sort gate)", "value": "high polyreactivity"}]}, {"sequence": "QVQLVESGGGLVQAGGSLRLSCAASGSIFVPNAMGWYSQAPGKERELVASISYSGTSTYYADSVKGRFTISRDNAKNTVYLQMNSLKPEDTAVYYCAVTWYPWYYGYWGQGTQVTVSS", "values": [{"measurement": "polyreactivity (PSR sort gate)", "value": "high polyreactivity"}]}, {"sequence": "QVQLVESGGGLVQAGGSLRLSCAASGSIFVQYALGWYRQAPGKERELVAAISQRGGSTYYADSVKGRFTISRDNAKNTVYVQMNSLKPADTAVYYCRPYPPSYYVTFGYGYWGQGTQVTVSS", "values": [{"measurement": "polyreactivity (PSR sort gate)", "value": "high polyreactivity"}]}, {"sequence": "QVQLVESGGGLVQAGGSLRLSCAASGSIFVQYAMGWYRQAPGKERELVAAITRRAGSTYYADSVKGRFTISRDNAKNTVYLQMNSLKPEDTAVYYCAAGYRYRYTRDIWYEYWGQGTQVTVSS", "values": [{"measurement": "polyreactivity (PSR sort gate)", "value": "high polyreactivity"}]}, {"sequence": "QVQLVESGGGLVQAGGSLRLSCAASGSIFVRNAMGWYRQAPGKERELVAAISGSGGRTYYADSEKGRFTISRDNAKNTVYLQMNSLKPEDTAVYYCAKEVTYWYGGNYDYWGQGTQVTVSS", "values": [{"measurement": "polyreactivity (PSR sort gate)", "value": "high polyreactivity"}]}]}
